Our source for the binding result and Kd values is publication PMC5018218.

Holding throughout (assay): EMSA
On the technique in general: In EMSA bound probe runs differently from free probe, usually more slowly.

Data set [1] addresses DmcElp3 9-459 (Dehalococcoides mccartyi, UniProt A0A1C7D1B7 9-459).
Data set [2] addresses DmcElp3 wild type (dimer) (Dehalococcoides mccartyi, UniProt A0A1C7D1B7 1-459).
Data set [3] has as its target DmcElp3 wild type (monomer) (Dehalococcoides mccartyi, UniProt A0A1C7D1B7 1-459).
The target in data set [4] is DmcElp3 R6A (Dehalococcoides mccartyi, UniProt A0A1C7D1B7 1-459, R6A).
Data set [5] addresses DmcElp3 K2A K3A (Dehalococcoides mccartyi, UniProt A0A1C7D1B7 1-459, K2A;K3A).

B1: D. mccartyi tRNAGlu-1 (UUC) (structured_RNA)
RNA: GCCCCCAUCGUCUAGAGGCCCAGGACAGCGGCCUUUCACGCCGUCAACAGGGGUUCGAAUCCCCUUGGGGGUACCA
One may read the Kd as a measure of binding affinity in units of concentration. A low value points to tighter binding. For B1, the binding result in data set [1], in data set [4] and in data set [5] was “no binding” in each case. Also, the Kd in data set [2] and in data set [3] was around 4 µM throughout.
